Experiment in all cases: cell-based or functional assay
The target of experiment [1] is T1, human MMUT R694W (patient variant) (human, UniProt P22033 33-750, R694W).
T1 sequence: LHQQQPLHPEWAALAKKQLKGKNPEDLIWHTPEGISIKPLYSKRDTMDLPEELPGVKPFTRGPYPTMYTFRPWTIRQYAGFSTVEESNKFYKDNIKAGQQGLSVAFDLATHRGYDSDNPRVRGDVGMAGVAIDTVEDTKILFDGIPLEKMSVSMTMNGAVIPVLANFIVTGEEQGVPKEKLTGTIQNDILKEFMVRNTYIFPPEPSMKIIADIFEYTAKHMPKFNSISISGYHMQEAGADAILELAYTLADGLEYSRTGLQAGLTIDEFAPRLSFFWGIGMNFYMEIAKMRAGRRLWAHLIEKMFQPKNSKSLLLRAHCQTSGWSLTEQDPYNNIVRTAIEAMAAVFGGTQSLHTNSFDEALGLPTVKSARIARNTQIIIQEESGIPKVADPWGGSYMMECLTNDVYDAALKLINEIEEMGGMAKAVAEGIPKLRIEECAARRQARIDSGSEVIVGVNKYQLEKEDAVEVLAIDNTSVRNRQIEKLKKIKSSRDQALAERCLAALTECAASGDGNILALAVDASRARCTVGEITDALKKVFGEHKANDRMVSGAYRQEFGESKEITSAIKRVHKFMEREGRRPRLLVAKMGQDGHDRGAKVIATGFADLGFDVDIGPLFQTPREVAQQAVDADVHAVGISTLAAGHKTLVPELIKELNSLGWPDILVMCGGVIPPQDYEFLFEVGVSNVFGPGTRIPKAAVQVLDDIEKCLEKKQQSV

Experiment [2] has as its target T2, human MMUT R616C (patient variant) (human, UniProt P22033 33-750, R616C).
T2 sequence: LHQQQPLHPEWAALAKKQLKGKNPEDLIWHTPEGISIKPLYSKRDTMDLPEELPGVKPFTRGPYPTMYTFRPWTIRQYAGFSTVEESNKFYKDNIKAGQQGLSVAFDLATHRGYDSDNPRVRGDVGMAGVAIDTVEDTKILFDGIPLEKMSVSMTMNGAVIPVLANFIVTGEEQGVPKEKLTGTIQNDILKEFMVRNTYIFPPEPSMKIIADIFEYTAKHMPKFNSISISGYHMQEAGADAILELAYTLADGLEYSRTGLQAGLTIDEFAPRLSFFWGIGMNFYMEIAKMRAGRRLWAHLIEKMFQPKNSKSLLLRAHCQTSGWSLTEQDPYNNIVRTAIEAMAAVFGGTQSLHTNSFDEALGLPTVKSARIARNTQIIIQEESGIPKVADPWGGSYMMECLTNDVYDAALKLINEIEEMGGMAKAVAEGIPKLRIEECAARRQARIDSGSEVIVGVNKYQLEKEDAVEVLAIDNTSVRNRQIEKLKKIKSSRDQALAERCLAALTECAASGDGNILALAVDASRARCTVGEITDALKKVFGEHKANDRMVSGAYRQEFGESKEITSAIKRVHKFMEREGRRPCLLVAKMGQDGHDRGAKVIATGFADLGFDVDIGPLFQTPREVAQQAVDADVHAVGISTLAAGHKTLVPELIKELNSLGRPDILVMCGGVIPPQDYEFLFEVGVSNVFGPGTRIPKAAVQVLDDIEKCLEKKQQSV

The target of experiment [3] is T3, human MMUT R228Q (patient variant) (human, UniProt P22033 33-750, R228Q).
T3 sequence: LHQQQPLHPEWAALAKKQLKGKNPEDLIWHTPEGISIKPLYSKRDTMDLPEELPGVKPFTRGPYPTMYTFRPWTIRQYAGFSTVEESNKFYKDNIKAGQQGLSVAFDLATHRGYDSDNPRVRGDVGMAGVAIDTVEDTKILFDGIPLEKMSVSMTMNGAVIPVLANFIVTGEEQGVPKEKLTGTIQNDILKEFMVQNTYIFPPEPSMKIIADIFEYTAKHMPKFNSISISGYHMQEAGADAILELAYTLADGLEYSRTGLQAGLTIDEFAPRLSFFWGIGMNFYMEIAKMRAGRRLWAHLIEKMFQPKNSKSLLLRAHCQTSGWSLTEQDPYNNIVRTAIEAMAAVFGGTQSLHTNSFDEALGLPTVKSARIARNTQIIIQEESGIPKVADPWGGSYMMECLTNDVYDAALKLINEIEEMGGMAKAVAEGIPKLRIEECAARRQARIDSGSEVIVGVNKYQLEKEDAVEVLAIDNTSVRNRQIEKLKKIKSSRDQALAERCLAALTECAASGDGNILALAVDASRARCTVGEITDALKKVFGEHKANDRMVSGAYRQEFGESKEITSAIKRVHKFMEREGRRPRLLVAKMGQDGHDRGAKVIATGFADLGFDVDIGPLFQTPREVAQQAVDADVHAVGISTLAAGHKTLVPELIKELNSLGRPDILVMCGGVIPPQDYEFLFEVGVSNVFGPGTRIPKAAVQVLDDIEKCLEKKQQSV

B1: human MMAA (G-protein chaperone of MMUT), wild type (enzyme)
chain: KDHTEGLSDKEQRFVDKLYTGLIQGQRACLAEAITLVESTHSRKKELAQVLLQKVLLYHREQEQSNKGKPLAFRVGLSGPPGAGKSTFIEYFGKMLTERGHKLSVLAVDPSSCTSGGSLLGDKTRMTELSRDMNAYIRPSPTRGTLGGVTRTTNEAILLCEGAGYDIILIETVGVGQSEFAVADMVDMFVLLLPPAGGDELQGIKRGIIEMADLVAVTKSDGDLIVPARRIQAEYVSALKLLRKRSQVWKPKVIRISARSGEGISEMWDKMKDFQDLMLASGELTAKRRKQQKVWMWNLIQESVLEHFRTHPTVREQIPLLEQKVLIGALSPGLAADFLLKAFKSRD
Turning to B1, the figures for the “GAP activation: GTPase activity of MMAA in the presence of MMUT, fold attenuation against wild-type MMUT” value in experiment [1], in experiment [2] and in experiment [3] were 12 fold, 7 fold and 12 fold, respectively.
